Reference: US20180071366A1
Numbered stars: 1 amine (or outer) side, 2 acyl side, 3 side chain; on linkers, the order of the positions; unused ones are H or OH. Bridge positions count the residues as written; N and C are the ends. Square brackets hold non-standard residues; d marks the D form. * marks the point of attachment. C20 diacid = O=C(O)CCCCCCCCCCCCCCCCCCC(=O)*; γGlu = O=C(O)[C@H](CCC(=O)[*:2])N[*:1]; Hyp = O=C(O)[C@@H]1C[C@@H](O)CN1; NMeI = CC[C@H](C)[C@H](NC)C(=O)O; Aad = N[C@@H](CCCC(=O)O)C(=O)O; Orn = NCCC[C@H](N)C(=O)O; Dab = NCC[C@H](N)C(=O)O; Dap = NC[C@H](N)C(=O)O; Sar = CNCC(=O)O

B1: Compound 1 (peptide)
peptide: {C20 diacid-γGlu}-RDGTAT[Dap]ATERLAHFLQRSSF[Sar]A[NMeI]LSSTEVGSNT[Hyp]-NH2
modifications: lactam 2-7
SMILES: CC[C@H](C)[C@@H](C(=O)N[C@@H](CC(C)C)C(=O)N[C@@H](CO)C(=O)N[C@@H](CO)C(=O)N[C@H](C(=O)N[C@@H](CCC(=O)O)C(=O)N[C@H](C(=O)NCC(=O)N[C@@H](CO)C(=O)N[C@@H](CC(N)=O)C(=O)N[C@H](C(=O)N1C[C@H](O)C[C@H]1C(N)=O)[C@@H](C)O)C(C)C)[C@@H](C)O)N(C)C(=O)[C@H](C)NC(=O)CN(C)C(=O)[C@H](Cc1ccccc1)NC(=O)[C@H](CO)NC(=O)[C@H](CO)NC(=O)[C@H](CCCNC(=N)N)NC(=O)[C@H](CCC(N)=O)NC(=O)[C@H](CC(C)C)NC(=O)[C@H](Cc1ccccc1)NC(=O)[C@H](Cc1c[nH]cn1)NC(=O)[C@H](C)NC(=O)[C@H](CC(C)C)NC(=O)[C@H](CCCNC(=N)N)NC(=O)[C@H](CCC(=O)O)NC(=O)[C@@H](NC(=O)[C@H](C)NC(=O)[C@@H]1CNC(=O)C[C@H](NC(=O)[C@H](CCCNC(=N)N)NC(=O)CC[C@H](NC(=O)CCCCCCCCCCCCCCCCCCC(=O)O)C(=O)O)C(=O)NCC(=O)N[C@@H]([C@@H](C)O)C(=O)N[C@@H](C)C(=O)N[C@@H]([C@@H](C)O)C(=O)N1)[C@@H](C)O
B2: Compound 51 (peptide)
peptide: {C20 diacid-γGlu}-REGTAT[Dab]ATERLAHFLQRSSF[Sar]A[NMeI]LSSTEVGSNT[Hyp]-NH2
modifications: lactam 2-7
SMILES: CC[C@H](C)[C@@H](C(=O)N[C@@H](CC(C)C)C(=O)N[C@@H](CO)C(=O)N[C@@H](CO)C(=O)N[C@H](C(=O)N[C@@H](CCC(=O)O)C(=O)N[C@H](C(=O)NCC(=O)N[C@@H](CO)C(=O)N[C@@H](CC(N)=O)C(=O)N[C@H](C(=O)N1C[C@H](O)C[C@H]1C(N)=O)[C@@H](C)O)C(C)C)[C@@H](C)O)N(C)C(=O)[C@H](C)NC(=O)CN(C)C(=O)[C@H](Cc1ccccc1)NC(=O)[C@H](CO)NC(=O)[C@H](CO)NC(=O)[C@H](CCCNC(=N)N)NC(=O)[C@H](CCC(N)=O)NC(=O)[C@H](CC(C)C)NC(=O)[C@H](Cc1ccccc1)NC(=O)[C@H](Cc1c[nH]cn1)NC(=O)[C@H](C)NC(=O)[C@H](CC(C)C)NC(=O)[C@H](CCCNC(=N)N)NC(=O)[C@H](CCC(=O)O)NC(=O)[C@@H](NC(=O)[C@H](C)NC(=O)[C@@H]1CCNC(=O)CC[C@H](NC(=O)[C@H](CCCNC(=N)N)NC(=O)CC[C@H](NC(=O)CCCCCCCCCCCCCCCCCCC(=O)O)C(=O)O)C(=O)NCC(=O)N[C@@H]([C@@H](C)O)C(=O)N[C@@H](C)C(=O)N[C@@H]([C@@H](C)O)C(=O)N1)[C@@H](C)O
B3: Ref. 1 (peptide)
peptide: {C20 diacid-γGlu}-RDGTAT[Orn]ATERLAHFLQRSSF[Sar]A[NMeI]PSSTEVGSNT[Hyp]-NH2
SMILES: CC[C@H](C)[C@@H](C(=O)N1CCC[C@H]1C(=O)N[C@@H](CO)C(=O)N[C@@H](CO)C(=O)N[C@H](C(=O)N[C@@H](CCC(=O)O)C(=O)N[C@H](C(=O)NCC(=O)N[C@@H](CO)C(=O)N[C@@H](CC(N)=O)C(=O)N[C@H](C(=O)N1C[C@H](O)C[C@H]1C(N)=O)[C@@H](C)O)C(C)C)[C@@H](C)O)N(C)C(=O)[C@H](C)NC(=O)CN(C)C(=O)[C@H](Cc1ccccc1)NC(=O)[C@H](CO)NC(=O)[C@H](CO)NC(=O)[C@H](CCCNC(=N)N)NC(=O)[C@H](CCC(N)=O)NC(=O)[C@H](CC(C)C)NC(=O)[C@H](Cc1ccccc1)NC(=O)[C@H](Cc1c[nH]cn1)NC(=O)[C@H](C)NC(=O)[C@H](CC(C)C)NC(=O)[C@H](CCCNC(=N)N)NC(=O)[C@H](CCC(=O)O)NC(=O)[C@@H](NC(=O)[C@H](C)NC(=O)[C@H](CCCN)NC(=O)[C@@H](NC(=O)[C@H](C)NC(=O)[C@@H](NC(=O)CNC(=O)[C@H](CC(=O)O)NC(=O)[C@H](CCCNC(=N)N)NC(=O)CC[C@H](NC(=O)CCCCCCCCCCCCCCCCCCC(=O)O)C(=O)O)[C@@H](C)O)[C@@H](C)O)[C@@H](C)O
B4: Compound 5 (peptide)
peptide: {C20 diacid-γGlu}-RDGTAT[Orn]ATERLAHFLQRSSF[Sar]A[NMeI]PSSTEVGSNT[Hyp]-NH2
modifications: lactam 2-7
SMILES: CC[C@H](C)[C@@H](C(=O)N1CCC[C@H]1C(=O)N[C@@H](CO)C(=O)N[C@@H](CO)C(=O)N[C@H](C(=O)N[C@@H](CCC(=O)O)C(=O)N[C@H](C(=O)NCC(=O)N[C@@H](CO)C(=O)N[C@@H](CC(N)=O)C(=O)N[C@H](C(=O)N1C[C@H](O)C[C@H]1C(N)=O)[C@@H](C)O)C(C)C)[C@@H](C)O)N(C)C(=O)[C@H](C)NC(=O)CN(C)C(=O)[C@H](Cc1ccccc1)NC(=O)[C@H](CO)NC(=O)[C@H](CO)NC(=O)[C@H](CCCNC(=N)N)NC(=O)[C@H](CCC(N)=O)NC(=O)[C@H](CC(C)C)NC(=O)[C@H](Cc1ccccc1)NC(=O)[C@H](Cc1c[nH]cn1)NC(=O)[C@H](C)NC(=O)[C@H](CC(C)C)NC(=O)[C@H](CCCNC(=N)N)NC(=O)[C@H](CCC(=O)O)NC(=O)[C@@H](NC(=O)[C@H](C)NC(=O)[C@@H]1CCCNC(=O)C[C@H](NC(=O)[C@H](CCCNC(=N)N)NC(=O)CC[C@H](NC(=O)CCCCCCCCCCCCCCCCCCC(=O)O)C(=O)O)C(=O)NCC(=O)N[C@@H]([C@@H](C)O)C(=O)N[C@@H](C)C(=O)N[C@@H]([C@@H](C)O)C(=O)N1)[C@@H](C)O
B5: Compound 50 (peptide)
peptide: {C20 diacid-γGlu}-R[Aad]GTAT[Dap]ATERLAHFLQRSSF[Sar]A[NMeI]LSSTEVGSNT[Hyp]-NH2
modifications: lactam 2-7
SMILES: CC[C@H](C)[C@@H](C(=O)N[C@@H](CC(C)C)C(=O)N[C@@H](CO)C(=O)N[C@@H](CO)C(=O)N[C@H](C(=O)N[C@@H](CCC(=O)O)C(=O)N[C@H](C(=O)NCC(=O)N[C@@H](CO)C(=O)N[C@@H](CC(N)=O)C(=O)N[C@H](C(=O)N1C[C@H](O)C[C@H]1C(N)=O)[C@@H](C)O)C(C)C)[C@@H](C)O)N(C)C(=O)[C@H](C)NC(=O)CN(C)C(=O)[C@H](Cc1ccccc1)NC(=O)[C@H](CO)NC(=O)[C@H](CO)NC(=O)[C@H](CCCNC(=N)N)NC(=O)[C@H](CCC(N)=O)NC(=O)[C@H](CC(C)C)NC(=O)[C@H](Cc1ccccc1)NC(=O)[C@H](Cc1c[nH]cn1)NC(=O)[C@H](C)NC(=O)[C@H](CC(C)C)NC(=O)[C@H](CCCNC(=N)N)NC(=O)[C@H](CCC(=O)O)NC(=O)[C@@H](NC(=O)[C@H](C)NC(=O)[C@@H]1CNC(=O)CCC[C@H](NC(=O)[C@H](CCCNC(=N)N)NC(=O)CC[C@H](NC(=O)CCCCCCCCCCCCCCCCCCC(=O)O)C(=O)O)C(=O)NCC(=O)N[C@@H]([C@@H](C)O)C(=O)N[C@@H](C)C(=O)N[C@@H]([C@@H](C)O)C(=O)N1)[C@@H](C)O

target: recombinant human calcitonin receptor (hCT-R) (human), P30988; assay: cell-based or functional assay
Sequence (P30988 25-474): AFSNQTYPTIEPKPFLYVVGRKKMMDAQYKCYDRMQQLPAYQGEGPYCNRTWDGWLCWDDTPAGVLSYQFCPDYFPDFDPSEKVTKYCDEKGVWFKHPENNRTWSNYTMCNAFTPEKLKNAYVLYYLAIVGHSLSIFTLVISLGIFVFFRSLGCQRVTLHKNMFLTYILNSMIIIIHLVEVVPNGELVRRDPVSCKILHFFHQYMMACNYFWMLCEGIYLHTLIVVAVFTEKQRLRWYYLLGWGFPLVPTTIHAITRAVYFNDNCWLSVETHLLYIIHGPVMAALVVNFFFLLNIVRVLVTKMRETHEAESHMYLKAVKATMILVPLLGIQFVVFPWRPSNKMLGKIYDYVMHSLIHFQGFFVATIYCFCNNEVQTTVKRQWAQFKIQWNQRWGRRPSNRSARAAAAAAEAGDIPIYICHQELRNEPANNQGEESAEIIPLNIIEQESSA

Compared with B1, B2 is 16-fold lower in hCT-R EC50 [nM] (cAMP formation, 1321N1 cells expressing hCT-R): 13.6 nM for the first, 0.861 nM for the second.

Going from B3 to B4, the hCT-R EC50 [nM] (cAMP formation, 1321N1 cells expressing hCT-R) falls from 20.3 nM to 0.114 nM (180-fold).

Work on B5 yielded a hCT-R EC50 [nM] (cAMP formation, 1321N1 cells expressing hCT-R) of 3.3 nM.

target: recombinant human amylin 3 receptor (hAMYR3) (human), P30988; assay: cell-based or functional assay
Sequence (P30988 25-474, chain 1 of 2): as the sequence (P30988 25-474) above
Sequence (O60896 24-148, chain 2 of 2, further chain): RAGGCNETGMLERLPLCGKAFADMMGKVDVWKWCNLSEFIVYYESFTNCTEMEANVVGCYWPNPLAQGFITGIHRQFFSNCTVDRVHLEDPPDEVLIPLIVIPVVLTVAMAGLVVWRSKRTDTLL

First: B1
Second: B2
The hAMYR3 EC50 [nM] (cAMP formation, 1321N1 cells expressing hAMYR3) of the first is 30-fold higher: 9.3 nM for the first, 0.306 nM for the second.

Compared with B3, B4 is 530-fold lower in hAMYR3 EC50 [nM] (cAMP formation, 1321N1 cells expressing hAMYR3): 17.1 nM for the first, 0.032 nM for the second.

For B5, the hAMYR3 EC50 [nM] (cAMP formation, 1321N1 cells expressing hAMYR3) was 1.5 nM.
